Data published in patent US20220031842A1 (JIANGSU HENGRUI MEDICINE, published 2022).
Read-outs that look alike come from different tables or passages of the source. Blank lines part the entries; values can stand above or below the binder they belong to.

How the values were obtained:
[1] = molecular target: T1, Fusion protein of LAG-3 extracellular region and hIgG1 Fc (human); assay: ELISA, LAG-3-Fc captured by anti-human Fc on plate (which fusion: inferred)
T1 construct: Limits of the signal peptide are marked only by lost underlining; also called LAG-3-Fc; LAG-3-Fc fusion protein
Source text: (§1) The binding ability of anti-LAG-3 antibody to human LAG-3 protein was detected by ELISA assay. LAG-3 fusion protein with Fc or mFc tag was immobilized into 96-well microtiter plate by binding to anti-Fc or anti-mFc antibody coated on the microtiter plate, the strength of the signal after the addition of the antibody was used to determine the binding activity of the antibody to LAG-3, the specific experimental method is as follows.
(§2) The goat anti-human Fc antibody (Jackson Immuno Research, Cat No. 109-005-008) or goat anti-mouse Fc antibody (Sigma, Cat No. M3534-1ML) was diluted to a concentration of 2 μg/ml with PBS buffer at pH 7.4 (Sigma, Cat No. P4417-100TAB), and added to a 96-well plate at a volume of 50 μl/well and then, the plate was incubated in the incubator at 37° C. for 2 hours. After discarding the liquid, the plates were blocked with 200 μl/well of blocking solution containing 5% skim milk (Bright Dairy, skim milk powder) in PBS, and incubated in the incubator at 37° C. for 2.5 hours or overnight at 4° C. (16-18 hours). After blocking, the blocking solution was discarded and the plate was washed 5 times with PBST buffer (PH7.4 PBS containing 0.05% tween-20). […]

[2] = molecular target: T1, Fusion protein of LAG-3 extracellular …; assay: as above; remark: listed apart in the source
Source text: as §1, §2

[3] = molecular target: T1, Fusion protein of LAG-3 extracellular …; assay: competition: biotin-LAG-3-Fc binding to fixed Daudi cells, antibody titrated
How it was run: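 Daudi cells were PFA-fixed and blocked, then given 0.4 μg/ml (final) biotin-LAG-3-Fc premixed for 1 h with titrated antibody, and incubated 1 h at 37° C. Bound fusion protein was detected with HRP-streptavidin and TMB, read at OD450. Antibody blocking of antigen binding to the cells was calculated from the signal.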
Target sequence in this assay (chain, as listed by the source limits assumed): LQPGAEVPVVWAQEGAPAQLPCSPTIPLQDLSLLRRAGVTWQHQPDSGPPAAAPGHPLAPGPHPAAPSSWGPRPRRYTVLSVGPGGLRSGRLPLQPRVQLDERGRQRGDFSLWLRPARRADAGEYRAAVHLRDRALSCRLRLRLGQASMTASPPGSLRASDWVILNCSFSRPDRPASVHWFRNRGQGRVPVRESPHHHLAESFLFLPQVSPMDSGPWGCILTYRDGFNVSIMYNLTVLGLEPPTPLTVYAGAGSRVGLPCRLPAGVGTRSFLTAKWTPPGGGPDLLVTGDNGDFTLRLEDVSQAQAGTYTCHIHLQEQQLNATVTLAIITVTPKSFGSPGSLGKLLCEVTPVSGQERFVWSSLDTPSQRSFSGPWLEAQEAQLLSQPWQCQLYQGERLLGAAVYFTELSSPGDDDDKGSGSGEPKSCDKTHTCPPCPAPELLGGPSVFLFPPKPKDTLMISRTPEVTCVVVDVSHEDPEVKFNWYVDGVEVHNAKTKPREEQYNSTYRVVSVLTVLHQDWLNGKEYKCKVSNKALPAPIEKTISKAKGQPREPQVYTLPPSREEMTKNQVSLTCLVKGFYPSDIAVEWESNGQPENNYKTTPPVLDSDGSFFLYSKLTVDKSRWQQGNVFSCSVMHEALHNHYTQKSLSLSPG

EC50 [1]: 129 pM
EC50 [2]: 129 pM
IC50 [3]: 1330 pM
B1: mAb229 (antibody, V domains shown)
VH: QIQLVQSGPELKKPGETVKISCKASGYTFTTSGMSWVKQAPGKGLKWMGWINTYSGVPTYADDFKGRFAFSLETSASTAYLQINNLKNEDTATYFCARDNYDARDVYYYAMDYWGQGTSVTVSS
VL: DIQMTQSPASLSVSVGETVTITCRASENIYSNLAWYQQKQGKSPQLLVYAATNLADGVPSRFSGSGSGTQYSLKINSLQSEDFGSYYCQHFWITPWTFGGGTKLEIK
notes: Murine hybridoma antibody; also called LAG-3 antibody mAb229; hybridoma clone mAb229

EC50 [1]: 172 pM
EC50 [2]: 172 pM
IC50 [3]: 596 pM
B2: mAb303 (antibody, V domains shown)
VH: EVQLQQSGPVLVKPGASVKMSCKASGYTLTDYYMNWVKQSHGKSLEWIGVINPYNGDTAYNQKFKGKATLTVDKSSNTAYMEINSLTSEDSAVYYCTRDDGYYDYYFDVWGTGTTVTVSS
VL: DIQMTQSPSSLSASLGERVILTCRASQDIGSRLNWLQQGPDGTFKRLIYATSTLDSGVPKRFSGSRSGSDFSLTISSLESEDFVDYYCLQLASSPPTFGGGTKLEIK
notes: Murine hybridoma antibody; also called LAG-3 antibody mAb303; hybridoma clone mAb303
